Laboratory results: article PMC7954794, “Protein context shapes the specificity of SH3 domain-mediated interactions in vivo” (Nature Communications, 2021)

System: Abp1 PPIs
Test: DHFR-PCA of Abp1 SH3-swapped baits (Fig. 2B-D, S2C, S2F);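 for Protein-protein interaction distance between Abp1 SH3-swapped baits, to ABP1: Euclidean distance between DHFR-PCA score profiles of the baits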;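 for Protein-protein interaction distance between Abp1 SH3-swapped baits, to BEM1-2: Euclidean distance between DHFR-PCA score profiles of the baits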;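 for Protein-protein interaction distance between Abp1 SH3-swapped baits, to BOI1: Euclidean distance between DHFR-PCA score profiles of the baits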;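 for Protein-protein interaction distance between Abp1 SH3-swapped baits, to BZZ1-1: Euclidean distance between DHFR-PCA score profiles of the baits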
Format: cell-based, Saccharomyces cerevisiae
How it was run: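 Yeast DHFR-PCA in which Abp1 baits, carrying their SH3 replaced by CRISPR–Cas9 with one of 27 yeast SH3s or human CTTN, HCLS1 or DBNL SH3s, were mated against 575 SH3-associated DHFR F[3] preys plus 40 negative controls. Four tests were run per PPI. Diploids were selected twice (48 h, 30 °C), then grown 4 days on PCA selection media.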

[1] = number of PPIs, difference, Abp1 SH3-swapped with the listed SH3, Fig2D,S2F

B1: BBC1: yeast SH3-containing protein; SH3-deleted or knockout strain (protein, UniProt P47068 1-1157, looked up)
Myosin tail …: MSEPEVPFKVVAQFPYKSDYEDDLNFEKDQEIIVTSVEDAEWYFGEYQDSNGDVIEGIFPKSFVAVQGSEVGKEAESSPNTGSTEQRTIQPEVEQKDLPEPISPETKKETLSGPVPVPAATVPVPAATVPVPAATAVSAQVQHDSSSGNGERKVPMDSPKLKARLSMFNQDITEQVPLPKSTHLDLENIPVKKTIVADAPKYYVPPGIPTNDTSNLERKKSLKENEKKIVPEPINRAQVESGRIETENDQLKKDLPQMSLKERIALLQEQQRLQAAREEELLRKKAKLEQEHERSAVNKNEPYTETEEAEENEKTEPKPEFTPETEHNEEPQMELLAHKEITKTSREADEGTNDIEKEQFLDEYTKENQKVEESQADEARGENVAEESEIGYGHEDREGDNDEEKEEEDSEENRRAALRERMAKLSGASRFGAPVGFNPFGMASGVGNKPSEEPKKKQHKEKEEEEPEQLQELPRAIPVMPFVDPSSNPFFRKSNLSEKNQPTETKTLDPHATTEHEQKQEHGTHAYHNLAAVDNAHPEYSDHDSDEDTDDHEFEDANDGLRKHSMVEQAFQIGNNESENVNSGEKIYPQEPPISHRTAEVSHDIENSSQNTTGNVLPVSSPQTRVARNGSINSLTKSISGENRRKSINEYHDTVSTNSSALTETAQDISMAAPAAPVLSKVSHPEDKVPPHPVPSAPSAPPVPSAPSVPSAPPVPPAPPALSAPSVPPVPPVPPVSSAPPALSAPSIPPVPPTPPAPPAPPAPLALPKHNEVEEHVKSSAPLPPVSEEYHPMPNTAPPLPRAPPVPPATFEFDSEPTATHSHTAPSPPPHQNVTASTPSMMSTQQRVPTSVLSGAEKESRTLPPHVPSLTNRPVDSFHESDTTPKVASIRRSTTHDVGEISNNVKIEFNAQERWWINKSAPPAISNLKLNFLMEIDDHFISKRLHQKWVVRDFYFLFENYSQLRFSLTFNSTSPEKTVTTLQERFPSPVETQSARILDEYAQRFNAKVVEKSHSLINSHIGAKNFVSQIVSEFKDEVIQPIGARTFGATILSYKPEEGIEQLMKSLQKIKPGDILVIRKAKFEAHKKIGKNEIINVGMDSAAPYSSVVTDYDFTKNKFRVIENHEGKIIQNSYKLSHMKSGKLKVFRIVARGYVGW
With B1 the “Protein-protein interaction distance between Abp1 SH3-swapped baits, to ABP1” value (Abp1 bait with swapped SH3, distance to bait with ABP1 SH3, sheet Fig2C) was 7.08, the “Protein-protein interaction distance between Abp1 SH3-swapped baits, to BBC1” value (distance to Abp1 bait with BBC1 SH3, sheet Fig2C) was 0.00 and the “Protein-protein interaction distance between Abp1 SH3-swapped baits, to BEM1-1” value (distance to Abp1 bait with BEM1-1 SH3, sheet Fig2C) was 12.07. For the same molecule, the “Protein-protein interaction distance between Abp1 SH3-swapped baits, to BEM1-2” value (distance to Abp1 bait with BEM1-2 SH3, sheet Fig2C) was 30.95, the “Protein-protein interaction distance between Abp1 SH3-swapped baits, to BOI1” value (distance to Abp1 bait with BOI1 SH3, sheet Fig2C) was 9.448 and the “Protein-protein interaction distance between Abp1 SH3-swapped baits, to BOI2” value (distance to Abp1 bait with BOI2 SH3, sheet Fig2C) was 12.67. The “Protein-protein interaction distance between Abp1 SH3-swapped baits, to BUD14” value (distance to Abp1 bait with BUD14 SH3, sheet Fig2C) was 15.23, the “Protein-protein interaction distance between Abp1 SH3-swapped baits, to BZZ1-1” value (distance to Abp1 bait with BZZ1-1 SH3, sheet Fig2C) was 7.773 and the “Protein-protein interaction distance between Abp1 SH3-swapped baits, to BZZ1-2” value (distance to Abp1 bait with BZZ1-2 SH3, sheet Fig2C) was 9.168. For the same molecule, the “Protein-protein interaction distance between Abp1 SH3-swapped baits, to CDC25” value (distance to Abp1 bait with CDC25 SH3, sheet Fig2C) was 24.45, the “Protein-protein interaction distance between Abp1 SH3-swapped baits, to CTTN” value (distance to Abp1 bait with CTTN SH3, sheet Fig2C) was 6.802 and the “Protein-protein interaction distance between Abp1 SH3-swapped baits, to CYK3” value (distance to Abp1 bait with CYK3 SH3, sheet Fig2C) was 25.11. The “Protein-protein interaction distance between Abp1 SH3-swapped baits, to DBNL” value (distance to Abp1 bait with DBNL SH3, sheet Fig2C) was 7.329, the “Protein-protein interaction distance between Abp1 SH3-swapped baits, to FUS1” value (distance to Abp1 bait with FUS1 SH3, sheet Fig2C) was 16.64 and the “Protein-protein interaction distance between Abp1 SH3-swapped baits, to HCLS1” value (distance to Abp1 bait with HCLS1 SH3, sheet Fig2C) was 6.39. For the same molecule, the “Protein-protein interaction distance between Abp1 SH3-swapped baits, to HOF1” value (distance to Abp1 bait with HOF1 SH3, sheet Fig2C) was 29.63, the “Protein-protein interaction distance between Abp1 SH3-swapped baits, to HSE1” value (distance to Abp1 bait with HSE1 SH3, sheet Fig2C) was 7.295 and the “Protein-protein interaction distance between Abp1 SH3-swapped baits, to LSB1” value (distance to Abp1 bait with LSB1 SH3, sheet Fig2C) was 13.47. For the same molecule, the “Protein-protein interaction distance between Abp1 SH3-swapped baits, to LSB3” value (distance to Abp1 bait with LSB3 SH3, sheet Fig2C) was 13.63, the “Protein-protein interaction distance between Abp1 SH3-swapped baits, to MYO3” value (distance to Abp1 bait with MYO3 SH3, sheet Fig2C) was 13.06 and the “Protein-protein interaction distance between Abp1 SH3-swapped baits, to MYO5” value (distance to Abp1 bait with MYO5 SH3, sheet Fig2C) was 12.56. The “Protein-protein interaction distance between Abp1 SH3-swapped baits, to NBP2” value (distance to Abp1 bait with NBP2 SH3, sheet Fig2C) was 14.24, the “Protein-protein interaction distance between Abp1 SH3-swapped baits, to PEX13” value (distance to Abp1 bait with PEX13 SH3, sheet Fig2C) was 10.86 and the “Protein-protein interaction distance between Abp1 SH3-swapped baits, to PIN3” value (distance to Abp1 bait with PIN3 SH3, sheet Fig2C) was 11.25. For the same molecule, the “Protein-protein interaction distance between Abp1 SH3-swapped baits, to RVS167” value (distance to Abp1 bait with RVS167 SH3, sheet Fig2C) was 9.304, the “Protein-protein interaction distance between Abp1 SH3-swapped baits, to SDC25” value (distance to Abp1 bait with SDC25 SH3, sheet Fig2C) was 31.85 and the “Protein-protein interaction distance between Abp1 SH3-swapped baits, to SLA1-1” value (distance to Abp1 bait with SLA1-1 SH3, sheet Fig2C) was 27.19. The “Protein-protein interaction distance between Abp1 SH3-swapped baits, to SLA1-2” value (distance to Abp1 bait with SLA1-2 SH3, sheet Fig2C) was 16.91, the “Protein-protein interaction distance between Abp1 SH3-swapped baits, to SLA1-3” value (distance to Abp1 bait with SLA1-3 SH3, sheet Fig2C) was 13.32 and the “Protein-protein interaction distance between Abp1 SH3-swapped baits, to YSC84” value (distance to Abp1 bait with YSC84 SH3, sheet Fig2C) was 14.14. The “PPIs gained by Abp1 - SH3-dependent PPIs gained by Abp1” value [1] was 2, the “SH3-dependent PPIs - SH3-dependent PPIs gained by Abp1” value [1] was 19 and the “SH3-dependent PPIs gained by Abp1” value (number of PPIs, Abp1 SH3-swapped with the listed SH3, DHFR-PCA, Fig2D,S2F) was 0. The “Interactions in Abp1” value (number of interactions of Abp1 carrying the named SH3, sheet FigS2A-B) was 78.
